{"source": "patent US20230257470A1", "about": "(published 2023)", "binders": {"B1": {"name": "GpH7-B3/GpL16-k0 variant D270Q (antibody, human IgG1)", "heavy": "not shown", "light": "DIVMTQSPLSLPVTPGEPASISCQASESLVHSNRNTYLHWYLQKPGQSPQLLIYKVSNRFSGVPDRFSGSGSGTDFTLKISRVEAEDVGVYYCSQNTHVPPTFGQGTKVEIE", "notes": "also called B3 variant; copies: 2 + 2"}, "B2": {"name": "GpH7-B3/GpL16-k0 variant D270F (antibody, human IgG1)", "heavy": "not shown", "light": "B1 light", "notes": "as for B1"}, "B3": {"name": "GpH7-B3/GpL16-k0 variant D270V (antibody, human IgG1)", "heavy": "not shown", "light": "B1 light", "notes": "as for B1"}, "B4": {"name": "GpH7-B3/GpL16-k0 variant D270T (antibody, human IgG1)", "heavy": "not shown", "light": "B1 light", "notes": "as for B1"}, "B5": {"name": "GpH7-B3/GpL16-k0 variant D270I (antibody, human IgG1)", "heavy": "not shown", "light": "B1 light", "notes": "as for B1"}, "B6": {"name": "GpH7-B3/GpL16-k0 variant D270W (antibody, human IgG1)", "heavy": "not shown", "light": "B1 light", "notes": "as for B1"}, "B7": {"name": "GpH7-B3/GpL16-k0 variant P271R (antibody, human IgG1)", "heavy": "not shown", "light": "B1 light", "notes": "as for B1"}, "B8": {"name": "GpH7-B3/GpL16-k0 variant D270L (antibody, human IgG1)", "heavy": "not shown", "light": "B1 light", "notes": "as for B1"}, "B9": {"name": "GpH7-B3/GpL16-k0 variant Q295D (antibody, human IgG1)", "heavy": "not shown", "light": "B1 light", "notes": "as for B1"}, "B10": {"name": "GpH7-B3/GpL16-k0 variant D270K (antibody, human IgG1)", "heavy": "not shown", "light": "B1 light", "notes": "as for B1"}, "B11": {"name": "GpH7-B3/GpL16-k0 variant P271W (antibody, human IgG1)", "heavy": "not shown", "light": "B1 light", "notes": "as for B1"}, "B12": {"name": "GpH7-B3/GpL16-k0 variant D270R (antibody, human IgG1)", "heavy": "not shown", "light": "B1 light", "notes": "as for B1"}, "B13": {"name": "GpH7-B3/GpL16-k0 variant D270Y (antibody, human IgG1)", "heavy": "not shown", "light": "B1 light", "notes": "as for B1"}, "B14": {"name": "GpH7-B3/GpL16-k0 variant S298W (antibody, human IgG1)", "heavy": "not shown", "light": "B1 light", "notes": "as for B1"}}, "note": "Residue numbers refer to the chain shown, from its start.", "data": [{"biological_target": "T1, human FcγRIIb (human, UniProt P31994 43-217, limits assumed)", "T1 construct": "also called FcgRIIb; FcγIIB", "T1 sequence": "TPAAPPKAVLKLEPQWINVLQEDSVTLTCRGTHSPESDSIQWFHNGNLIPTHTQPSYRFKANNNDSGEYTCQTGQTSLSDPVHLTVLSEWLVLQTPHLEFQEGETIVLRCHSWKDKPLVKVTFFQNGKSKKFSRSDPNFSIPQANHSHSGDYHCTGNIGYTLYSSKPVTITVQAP", "assay": "SPR (Biacore), antibody captured, FcγR as analyte; amount bound / that of GpH7-B3/GpL16-k0 x 100;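 also: FcγR binding response divided by the captured antibody amount before comparison, measured at 25 °C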", "units": {"relative binding activity": "GpH7-B3/GpL16-k0 = 100"}, "experimental": "(§1) Interaction between each modified antibody and Fcγ receptor prepared in the manner described above was analyzed using the BIACORE™ T100 surface plasmon resonance system (GE Healthcare), BIACORE™ T200 surface plasmon resonance system (GE Healthcare), BIACORE™ A100 surface plasmon resonance system or BIACORE™ 4000 surface plasmon resonance system. HBS-EP+(GE Healthcare) was used for the running buffer, and measurements were carried out at 25° C. The chips used were chips in which antigen peptides, Protein A (Thermo Scientific), Protein A/G (Thermo Scientific) or Protein L (ACTIGEN® protein (Alltech or BioVision) were immobilized on the Series S Sensor Chip CM5 (GE Healthcare) or Series S Sensor Chip CM4 (GE Healthcare) by amine coupling, or chips in which preliminarily biotinylated antigen peptides were allowed to interact and then immobilized on the Series S Sensor Chip SA (certified) (GE Healthcare). The target antibodies were captured on these sensor chips, Fcγ receptor diluted with the running buffer was allowed to interact, followed by measurement of the amount of bound antibody. The amounts bound were compared between antibodies. However, since the amount of Fcγ receptor bound depends on the amount of captured antibody, the values used for comparison were first corrected by dividing the amount of Fcγ receptor bound by the captured amount of each antibody. Through reaction with 10 mM glycine-HCl at pH 1.5, the sensor chips were regenerated by washing off antibody captured on the sensor chips and used repeatedly.\n(§2) Binding strength was evaluated according to the following method based on the results of analyzing the interaction with each FcγR. […] That value was then further multiplied by 100, and the resulting value was used as an indicator of relative binding activity to each FcγR.", "values": [{"binder": "B1", "relative binding activity": 0}, {"binder": "B2", "relative binding activity": 5}, {"binder": "B3", "relative binding activity": 3}, {"binder": "B4", "relative binding activity": 2}, {"binder": "B5", "relative binding activity": 1}, {"binder": "B6", "relative binding activity": -2}, {"binder": "B7", "relative binding activity": 87}, {"binder": "B8", "relative binding activity": 3}, {"binder": "B9", "relative binding activity": 40}, {"binder": "B10", "relative binding activity": -5}, {"binder": "B11", "relative binding activity": 33}, {"binder": "B12", "relative binding activity": -5}, {"binder": "B13", "relative binding activity": -2}]}, {"biological_target": "T2, human FcγRIIa(R) (human, UniProt P12318 36-217)", "T2 construct": "also called FcgRIIaR; FcγRIIa type R", "T2 chain": "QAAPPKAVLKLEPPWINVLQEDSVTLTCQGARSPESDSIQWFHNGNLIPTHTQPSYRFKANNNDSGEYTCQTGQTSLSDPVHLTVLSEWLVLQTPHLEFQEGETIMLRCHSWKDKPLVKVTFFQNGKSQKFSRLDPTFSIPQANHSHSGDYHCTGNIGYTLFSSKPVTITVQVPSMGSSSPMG", "assay": "SPR (Biacore), antibody captured, FcγR as analyte; amount bound / that of GpH7-B3/GpL16-k0 x 100", "units": {"relative binding activity": "GpH7-B3/GpL16-k0 = 100"}, "experimental": "as §1, §2", "values": [{"binder": "B14", "relative binding activity": 19}, {"binder": "B1", "relative binding activity": 2}, {"binder": "B2", "relative binding activity": 5}, {"binder": "B3", "relative binding activity": 1}, {"binder": "B4", "relative binding activity": 1}, {"binder": "B5", "relative binding activity": 3}, {"binder": "B6", "relative binding activity": -2}, {"binder": "B7", "relative binding activity": 89}, {"binder": "B8", "relative binding activity": 6}, {"binder": "B9", "relative binding activity": 43}, {"binder": "B10", "relative binding activity": -4}, {"binder": "B11", "relative binding activity": 46}, {"binder": "B12", "relative binding activity": -5}, {"binder": "B13", "relative binding activity": -2}]}, {"biological_target": "T3, human FcγRIIa(H) (human, UniProt P12318 36-217)", "T3 construct": "also called FcgRIIaH; FcγRIIa type H", "T3 sequence": "T2 chain with R133H", "assay": "SPR (Biacore), antibody captured, FcγR as analyte; amount bound / that of GpH7-B3/GpL16-k0 x 100", "units": {"relative binding activity": "GpH7-B3/GpL16-k0 = 100"}, "experimental": "as §1, §2", "values": [{"binder": "B14", "relative binding activity": 17}, {"binder": "B1", "relative binding activity": 78}, {"binder": "B2", "relative binding activity": 62}, {"binder": "B3", "relative binding activity": 37}, {"binder": "B4", "relative binding activity": 38}, {"binder": "B5", "relative binding activity": 43}, {"binder": "B6", "relative binding activity": 38}, {"binder": "B7", "relative binding activity": 99}, {"binder": "B8", "relative binding activity": 61}, {"binder": "B9", "relative binding activity": 37}, {"binder": "B10", "relative binding activity": 16}, {"binder": "B11", "relative binding activity": 75}, {"binder": "B12", "relative binding activity": 11}, {"binder": "B13", "relative binding activity": 53}]}, {"biological_target": "T4, human FcγRIIIa(F) (human, UniProt P08637 17-208, limits assumed)", "T4 construct": "also called FcgRIIIaF; FcγRIIIa allotype F158", "T4 sequence (P08637 other isoform, or with tags, fused parts or gaps limits assumed)": "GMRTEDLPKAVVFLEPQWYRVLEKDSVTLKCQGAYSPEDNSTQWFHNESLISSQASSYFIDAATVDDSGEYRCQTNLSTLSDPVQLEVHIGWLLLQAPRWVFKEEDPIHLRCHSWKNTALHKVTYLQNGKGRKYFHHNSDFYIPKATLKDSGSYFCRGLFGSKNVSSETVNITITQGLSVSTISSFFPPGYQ", "assay": "SPR (Biacore), antibody captured, FcγR as analyte; amount bound / that of GpH7-B3/GpL16-k0 x 100", "units": {"relative binding activity": "GpH7-B3/GpL16-k0 = 100"}, "experimental": "as §1, §2", "values": [{"binder": "B14", "relative binding activity": 11}, {"binder": "B1", "relative binding activity": 49}, {"binder": "B2", "relative binding activity": 12}, {"binder": "B3", "relative binding activity": 19}, {"binder": "B5", "relative binding activity": 23}, {"binder": "B6", "relative binding activity": 7}, {"binder": "B7", "relative binding activity": 76}, {"binder": "B8", "relative binding activity": 33}, {"binder": "B9", "relative binding activity": 64}, {"binder": "B10", "relative binding activity": 5}, {"binder": "B11", "relative binding activity": 57}, {"binder": "B12", "relative binding activity": 2}]}, {"biological_target": "T5, human FcγRIa (human, UniProt P12314 16-292, limits assumed)", "T5 construct": "also called FcgRIa; CD64", "T5 sequence (P12314 16-292 limits assumed)": "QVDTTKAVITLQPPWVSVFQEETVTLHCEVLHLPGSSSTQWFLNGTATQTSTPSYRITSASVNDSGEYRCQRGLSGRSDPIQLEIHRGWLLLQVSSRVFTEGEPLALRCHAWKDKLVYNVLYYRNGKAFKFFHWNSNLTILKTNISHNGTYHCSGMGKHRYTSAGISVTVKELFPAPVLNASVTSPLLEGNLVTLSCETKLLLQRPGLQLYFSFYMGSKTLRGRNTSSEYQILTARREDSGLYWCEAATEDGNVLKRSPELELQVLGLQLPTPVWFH", "assay": "SPR (Biacore), antibody captured, FcγR as analyte; amount bound / that of GpH7-B3/GpL16-k0 x 100", "units": {"relative binding activity": "GpH7-B3/GpL16-k0 = 100"}, "experimental": "as §1, §2", "values": [{"binder": "B14", "relative binding activity": 69}, {"binder": "B1", "relative binding activity": 82}, {"binder": "B2", "relative binding activity": 88}, {"binder": "B3", "relative binding activity": 84}, {"binder": "B4", "relative binding activity": 81}, {"binder": "B5", "relative binding activity": 88}, {"binder": "B6", "relative binding activity": 74}, {"binder": "B7", "relative binding activity": 100}, {"binder": "B8", "relative binding activity": 90}, {"binder": "B9", "relative binding activity": 95}, {"binder": "B10", "relative binding activity": 45}, {"binder": "B11", "relative binding activity": 100}, {"binder": "B12", "relative binding activity": 45}, {"binder": "B13", "relative binding activity": 78}]}]}
